In the nanobody polyreactivity screen of Harvey et al. (2022):

Assay: yeast display, Sf9 membrane polyspecificity reagent, FACS + sequencing; frameworks hold sequencing errors
Summary of the method: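 Synthetic nanobody libraries on Saccharomyces cerevisiae BJ5465 were galactose-induced for 36–48 hours, stained 1 hour at 4 °C with 10% biotinylated, detergent-solubilized Sf9 membrane reagent and enriched on streptavidin microbeads. FACS then separated cells into low and high (top ~1%) gates by anti-HA (expression) and streptavidin (reagent binding) fluorescence. Genes were colony-PCR amplified, MiSeq 2 × 250 sequenced and CDR-length filtered. A clone's polyreactivity label is that of its gate of origin.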

Sequence	polyreactivity (PSR sort gate)
QVQLVESGGGLVQAGGTLRLSCAASGSIWRYAMGWYRKAPGKERELVATIARRGGSTYYADSVKGRFTISRDNAKNTVYLLMNSLKPEDPAVYYCAAAESASSFRFDYWGQGTQVTVSS	high polyreactivity
QVQLVESGGGLVQAGGTLRLSCAASGSSYFYYAMGWYRQAPRKERELVADITSGGSTDYADSVKGRFTISRDNAKNTVYVQINSVNPEDSAVYYCAADDFSGYGTEYDYWGQGTQVTVSS	low polyreactivity
QVQLVESGGGLVQAGGTLRLSCAASGSTFGYNAMGWYRQAPGKERELVARITSSGGSTYYADSVKGRFTISRDNAKNTVYLQMNSLKPEDTAVYYCAAGYPYRAVYRYYYWGQGTQVTVSS	high polyreactivity
QVQLVESGGGLVQAGGTLRLSCAASGSTFPGYAIGSNRQAPGKERELVAAISVSGDRTYYADSVKGRFTISRDNAKNTVYLQMNSLKPEDTAVYYCAVRTRYRSYGVWVGNYSWGQGTQVTVSS	high polyreactivity
QVQLVESGGGLVQAGGTLRLSCAASGSTFYENTMGWYRQARGKERELVAAISFRGGSTYYADSVKGRFTISRDNAKKTVYLQMNSLKPEDTAVYYCAKDYYTLRLYDYWGQGTLVTVSS	low polyreactivity
QVQLVESGGGLVQAGGTLRLSCAASGSTIKPYAMGWNRQAPGKERELVAVIRWRGGRTYYADSVKGRFTISRDNAKNTAYFQINSQNPADTAVYYCAAGGSQAAGGYGYYGYDYWGQGTQVTVSA	low polyreactivity
QVQLVESGGGLVQAGGTLRLSCAASGYIFAWYAMGWYRQAPGKERELVATITWRGGSTYYADSVKGRFTISRDNAKNTVYLQMNSLKPEDTAVYYCNKDVTPLHYDSWGQGTQVTVSS	high polyreactivity
QVQLVESGGGLVQAGGTLRLSCAASGYTLTINVMGWYRPAPGKERELVAAITSSGASTNYADSVKGRFTISRDNAKNTVYLQMNSLKPEDTAVYYCNVGNEHQSDFVVPFDYNHWGQGTQVTVSS	low polyreactivity
QVQLVESGGGLVQAGGTLRLSCAPSGHIVFYYTKGWYRQAPGKERELVAGITIGGSTNYADSVKGRFTISRDNAKNTVYLQMNSLKPEDTAVYYCNVVKYVYIYSYWEYYYWGQGTQVTGSS	low polyreactivity
QVQLVESGGGLVQAGGTLRLSCDASGRTFHVYAMGWYRHAPGKERELVAAISGRTGSTYYADSVKGRFTISRDIAKNTVYLQMNSLKPEDTAVYYCAKGYSYGWWGGFGYWGQGTQVTVSS	high polyreactivity
QVQLVESGGGLVQAGGTLRLSCPASGSNFNRYAMGSYRKAPGKERELVAAISSTGSTFYADSVKWRFTISRDNAKITVYLQMNSLTPEDTAVYYCNADATHDWLRVDTYEYWGQGTQVTVSS	low polyreactivity
QVQLVESGGGLVQAGGTLRLSCSASGGTIAIYAMGWYRHARGKEREMVARISYSSGSTHYADSVKGRFTISRDNAKNTVFLQMNSLKPEDSAVYYCAATAYWFYAKDYYWGQGSQVTVSS	high polyreactivity
QVQLVESGGGLVQAGGTLRLSCSASGRTFFSYAMGWYRQAQGKERELVAAITYSGGRTYYADSVKGRFTISRDNAKNTVYVQMNSLKRDDTAVYYCAGTHYREKMDYWGQGTQLTVSS	low polyreactivity
QVQLVESGGGLVQAGGTLRLSGAASGSTFFFNAMGWYRQAPGKEWELVAAITGSGGSTYYADSVQGRFTISRDNAKNTVYLQMNSLKPEDTAVYYCAAYGAKPSEYYWGQGTQVTVSS	low polyreactivity
QVQLVESGGGLVQAGGTLRLSGAASGSTFVYNAMGWNIQAPGKERDLVAVITRRGGSPYYADSVNGRFTISRDNEKKTVYLQMNILNPEDTAVYYCAAGYRRTQTTDYHYWGHGTQVTVSS	high polyreactivity
QVQLVESGGGLVQAGRSLRISCAASGRIFYYNDMGRYRQAPGKERELVAAITWTDDGTYYADSVKARFTISRDNAKNTVYLQMNSLKPEVTAVYYCAAESFYGFEYWGQGTQLTVSS	low polyreactivity
QVQLVESGGGLVQAGRSLRLICAASGSTFVIYDMVWYRQAPGKERELVAAISYSGGSTYYADSVKGRFKISRDNAKNTVYLEMNSLKPEDTAVYYCNAGVLVLLYSYLQSELEYWGQGTQVTVSS	low polyreactivity
QVQLVESGGGLVQAGRSLRLSCAASGFIILGNAMGWYRQAPGKERELVAAISSGGSTYADSVKGRFTISRDNAKNTVYLQMNSLKPEDTAVYYCAVDRAFRAQNYHEYDYWGQGTQVTVSS	low polyreactivity
QVQLVESGGGLVQAGRSLRLSCAASGITLVRNAMGWSRQAPGKEMELVAAISSNGDNTYYADSVKGRFTISSDNAKNTVYLQMNSLKPEDTAVYYCAVGGPVIWWGPKYDYWGQGTQVTVSS	high polyreactivity
QVQLVESGGGLVQAGRSLRLSCAASGLIFSWYAMGWYRQAPGKEREFVAAIRWSGSGTYYADSVKGRFTISRDNAKNTVYLQMNSLKPEDTAVYYCAVRWSSGSRRYNYWGQGTQVTVSS	high polyreactivity
QVQLVESGGGLVQAGRSLRLSCAASGRIFYRKAMGWYRQAPGKERELVAGITSGGSTNYADSVKGRFTISRDNEKNTFDLQMNSVKPEDTAVYYCAKASPAKFYSEAGYDYWGQGTQVTVSS	low polyreactivity
QVQLVESGGGLVQAGRSLRLSCAASGRSFKYYPMGWYRQAPGKERELVARISRSSGNTYYADSVKGRFTISRDTAKNTVYLQMNSLKAEDTAVYFCATVPHYNGFNYWGQGTQVTVSS	high polyreactivity

Sequence	polyreactivity (PSR sort gate)
QVQLVESGGGLVQAGRSLRLSCAASGRTFPYYVMGWYRQAPGKDRELVAAINSGGRTNYADSVKGRFTISRDNAKNTVYLQLNSLKPEDTAVYYCTKRGHPARLGYYYWGQGTLVTVSS	low polyreactivity
QVQLVESGGGLVQAGRSLRLSCAASGSIFSRNAMGWYRQAPGKERELVAAITGSASSTYYADSVKGRFTISRDNAKNTVYLQMNSLKPEDTAVYYCNAARVYLSECGQGTQVTVSS	high polyreactivity
QVQLVESGGGLVQAGRSLRLSCAASGSILGTYAMGWYRQAPGKERELVAAISSSGRTSYADSVKGRFTISRDNAKNTVYLQMNSLKPEDTAVYYCNASNYIVLINDPDAAPWLYDYWGQGTQVTVSS	low polyreactivity
QVQLVESGGGLVQAGRSLRLSCAASGSTFSVNAMGWYRQAPGKERELVAAIPSGGNTYADSVKGRFTISRDNAKNTVYLQMNSLKPEDTAVYYCAVDNRDLFFYPGGFDYWGQGTQVTVSS	low polyreactivity
QVQLVESGGGLVQAGRSLRLSCAASGSTFVHNAMGWYRQAPGKERELVAAISRSGGRTYYADSVKGRFTISRDNAKNTVYLQMNSLKPEDTAVYDCAAGLHWTRYPSAHYLFEYWGQGTQVTVSS	high polyreactivity
QVQLVESGGGLVQAGRSLRLSCAASGSTFVNYAMGWYRQAPGKERELVAAISRSGGRTYYADSVKGRFTISRDNAKNTVYLQMNSLKPEDTAVYYCAPLLLSPEYGYWGQGTQVTVSS	high polyreactivity
QVQLVESGGGLVQAGRSLRLSCAASGSTFWEYAMGWYRQAPGNEREFVAAISTSGGSTYYADSLKGRFTISRDTAKYTVYLQMNSLKPEDTAVYYCAAGRVRRRVWYNYWGQGTQVTVSS	high polyreactivity
QVQLVESGGGLVQAGRSLRLSCAASGYTFSPNDMGWYRQAPGKERELVATITYGGGTTYYADSVKGRFTISRDNAKNTVYLQMNSLKPEDTAVYYCAKDVPLYRAHDGYDYWGQGTQVTVSS	low polyreactivity
QVQLVESGGGLVQAGRSLRLSCAASGYTFYVYAMGWYRQAPGKERELVASISSGGITYYADSVKGRFTISRDNAKNTVYLQMNILKPEDTAVYYCAADWQWTYDYWGQGTQVTVSS	low polyreactivity
QVQLVESGGGLVQAGRSLRLSCAASVSIFAGYAMGWYRQAPGKERELVAGISYSGGRTYYADSVKGRFTISRDNAKNTVYLQMNSLKPEDTAVYYCNARFVRVRKGYGYWGLGTQVTVSS	high polyreactivity
QVQLVESGGGLVQAGRSLRVSCAASGRIFIWNAMGWYRQAPGNERELVAAISWSGGSTYYADSVKGRFTISRDNAKNTVYLQINSLKPEDTAVYYCAARDVRPYYVKPPVRYYYWGQGTQVTVSS	high polyreactivity
QVQLVESGGGLVQAGRTLRLSCAASGFTFYYNAMGWYRQAPGKERELVATITGSTYYADSVKGLFTISRDNATYSVYLQMNSLKPEDTAVYYCTADASLVLAEYDYWGQGTQVTVSS	low polyreactivity
QVQLVESGGGLVQAGVSLRISCAASASILVTNAMGWYRHAPGKERELVAAITSIGGSTNYADSVKGRFTISRDNAKNTVYLQMNSLKPEDTAVYYCAAGIYPTVFWVYYWGQGTQVTVSS	low polyreactivity
QVQLVESGGGLVQAGVSLRLSCAASGFTFYYNAMGWYRQAPGKERELVAAINYSGGSTYYADSVKGRFTISRDNAKNTVYLQMNSLKPEDTAVYYCNAVGYSVFRRYNYWGQGTQVTVSS	high polyreactivity
QVQLVESGGGLVQAGVSLRLSCAASGGTLSNYAMGWYRQAPGKERELVAAITYRGGSTYYADSVKGRFTISRDNAKNTVYLQMNSQKPEDTAVYSCAAPGFKPFSFDSWGQGTQVTVSS	low polyreactivity
QVQLVESGGGLVQAGVSLRLSCAASGKTVYSYAMGWYRQAPGKKRQLVAGISYIGGRTYYADSVKGRFTISRDNAKNTFYLQMNSLNPEDTAFYYCAAVYWYGRRKYYSWGQGTQVTVSS	high polyreactivity
QVQLVESGGGLVQAGVSLRLSCAASGLTFGNYAMGWYRQAPGKERELVAAISKRGGTTYYADSVKARFTISRDNAKNTVYLQMNSLKPEDTAVYYCSARDYSHPTDDNYWGQGTQVTVSS	high polyreactivity
QVQLVESGGGLVQAGVSLRLSCAASGLTFKWNAMGWYRHAPGKEREFVAAITKRAGSTYYADSVKGRFTISRDNAKNTVYLQMNSLKPEDTAVYYCAADDGYFYARYDYWGHGTQVTVSS	low polyreactivity
QVQLVESGGGLVQAGVSLRLSCAASGLTFSKYAMGWYREAPGNERDLVAAITRGDRTYYADSVKGRFTISRDNAKNTVYLHMNSLKPADTAVYYCAARQYYWGQGTQVTVSS	high polyreactivity
QVQLVESGGGLVQAGVSLRLSCAASGRIFGENAMGWYRQAPGEEREFVAVISISDASTYYADSVKGRFTISRDNAKNTVYFQMNSLKPEDTAVYYCAADLTDFLYVASDYCGQGTQVTVSS	low polyreactivity
QVQLVESGGGLVQAGVSLRLSCAASGRIFYAYAMGWYRKAPGKERELVAAISSSGRTYYADSVKGRLTISRDNAKNTVYLQMNSLKPEDTAVYYCAVDWSRQAHKFNYWGQGTQVTVSS	high polyreactivity
